Reference: patent US20180009867A1

Biological target: IL-1 receptor
Assay: SPR, immobilized IL-1 receptor

Kd | Substance
0.37 nM | mutant chicken interleukin-1β protein having E118K mutation (ligand)
0.23 nM | mutant chicken interleukin-1β protein having T117A mutation (ligand)
0.12 nM | wild-type chicken interleukin-1β (ligand)
